Values of other authors, collected in article PMC5711038.
pKd: −log10 of the molar value.

Molecular target: Fbxw7 substrate receptor (Homo sapiens) (UniProt Q969H0)
Assay: FRET

Sequence of UniProt Q969H0 (Q969H0 whole entry): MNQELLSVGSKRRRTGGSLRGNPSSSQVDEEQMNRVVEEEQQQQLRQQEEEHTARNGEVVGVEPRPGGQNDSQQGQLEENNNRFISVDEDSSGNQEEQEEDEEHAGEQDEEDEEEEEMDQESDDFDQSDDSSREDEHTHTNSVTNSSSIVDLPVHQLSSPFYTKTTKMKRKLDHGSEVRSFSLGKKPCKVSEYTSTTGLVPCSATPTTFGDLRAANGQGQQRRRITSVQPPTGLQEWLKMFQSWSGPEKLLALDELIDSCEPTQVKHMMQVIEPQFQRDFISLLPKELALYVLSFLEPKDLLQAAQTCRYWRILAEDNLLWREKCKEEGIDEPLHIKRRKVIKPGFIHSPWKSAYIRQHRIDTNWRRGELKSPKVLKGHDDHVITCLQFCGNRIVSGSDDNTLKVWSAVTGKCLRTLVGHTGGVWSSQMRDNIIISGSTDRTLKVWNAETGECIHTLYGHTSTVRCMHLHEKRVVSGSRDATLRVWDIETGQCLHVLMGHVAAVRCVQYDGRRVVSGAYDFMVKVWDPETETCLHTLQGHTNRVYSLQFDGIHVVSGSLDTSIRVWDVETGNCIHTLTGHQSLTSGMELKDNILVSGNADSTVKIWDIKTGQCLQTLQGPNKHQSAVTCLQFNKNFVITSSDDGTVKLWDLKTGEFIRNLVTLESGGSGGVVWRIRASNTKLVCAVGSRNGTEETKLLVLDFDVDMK

pKd: 12.00
Substance: Cul1 (from UniProt Q13616)
